Assay results as given in article PMC11621822.

Target: recombinant heat shock protein 70 cognate 3 (Hsc70-3), protein encoded by AAEL017349 (Aedes aegypti)
Test: ELISA

## recombinant E protein Receptor (EPrRec), protein encoded by AAEL011180 (natural protein)
  EC50: 70.7 nM
